Where no end group is shown, it is not given here.
Tests used:
[1] = molecular target: T1, Anti-CD28 scFv (VH - linker 1 - VL) (biotinylated (site not stated)); experiment: clonal phage ELISA on anti-CD28 scFv plate; wells pre-incubated with soluble CD28 as competitor
[2] = molecular target: T1, Anti-CD28 scFv (VH - linker 1 - VL); experiment: clonal phage ELISA; biotinylated anti-CD28 scFv on neutravidin plate, bound phage detected with anti-M13 HRP
PSMA Fab [3] = molecular target: T2, PSMA Fab; experiment: competition ELISA; peptide 0-100 µM with 0.3 nM PSMA Fab on plate-captured biotinylated PSMA
T2 construct: also called 006 PSMA Fab; anti-PSMA Fab

PSMA Fab [4] = molecular target: T2, PSMA Fab; experiment: binding ELISA; PSMA Fab titrated on plate-captured biotinylated peptide
PSMA Fab [5] = molecular target: T2, PSMA Fab; experiment: BLI (Octet); PSMA Fab on sensor-loaded biotinylated peptide, 1:1 model
[6] = molecular target: T3, Anti-CD28 Fab (SEQ ID NOs: 696, 697); experiment: phage binding ELISA on captured anti-CD28 Fab; wells pre-incubated with CD28 antigen as competitor
T3 construct: In the phage ELISA the Fab was biotinylated and captured on neutravidin coated plates

[7] = molecular target: T3, Anti-CD28 Fab (SEQ ID NOs: 696, 697); experiment: phage binding ELISA; biotinylated anti-CD28 Fab on neutravidin plate, clonal phage supernatant, anti-M13 HRP
PSMA Fab (006 PSMA Fab) [8] = molecular target: T4, PSMA Fab (006 PSMA Fab); experiment: phage ELISA; biotinylated PSMA Fab on neutravidin plate, clonal phage supernatant, anti-M13 HRP detection;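 further: wells preincubated with PSMA antigen in blocking buffer or with blocking buffer only before clonal phage were added for a short incubation, then bound phage detected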
T4 construct: also called Anti-PSMA Fab; anti-PSMA Fab

PSMA Fab (006 PSMA Fab) [9] = molecular target: T4, PSMA Fab (006 PSMA Fab); experiment: phage ELISA; PSMA Fab on plate pre-incubated with PSMA antigen as competitor, anti-M13 HRP detection;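 further: crude clonal phage supernatants added to Fab-coated wells still holding PSMA antigen in blocking buffer, with bound phage as read-out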
Ab-15 [10] = experiment: binding ELISA: biotinylated peptide on neutravidin plate, Ab-15 titrated
Ab-15 [11] = experiment: competition ELISA: peptide titrated against 1 nM Ab-15; competitor plate-bound CD28
Ab-15 [12] = experiment: BLI (Octet): biotinylated peptide on sensor, Ab-15 titrated, 1:1 model
Ab-15 [13] = experiment: BLI (Octet): sensor loaded with 200 nM biotinylated peptide, 100 nM Ab-15;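 further: binding association and dissociation tracked in real time, fitted to a 1:1 binding model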

B1: Phage-451 (peptide)
peptide: MDWCPRFWWHECYA
notes: Clone of the Peptide-9 optimisation library
CD28 scFv signal in presence of CD28 [1]: 0.503 | CD28 scFv signal [2]: 2.4

B2: Peptide-268 (peptide)
peptide: VEKVCKPVWMCVGF
notes: From the Peptide-180 optimisation phage library
IC50 (PSMA Fab [3]): 250 nM | EC50 (PSMA Fab [4]): 5.1 nM | Off rate t1/2 (PSMA Fab [5]): 3 min

B3: Peptide-274 (peptide)
peptide: ITPVCKPLWMCSGL
notes: as for B2
IC50 (PSMA Fab [3]): 330 nM | EC50 (PSMA Fab [4]): 4 nM | Off rate t1/2 (PSMA Fab [5]): 3.3 min

B4: Peptide-284 (peptide)
peptide: TEVRCTPPWMCLGF
notes: as for B2
IC50 (PSMA Fab [3]): 970 nM | EC50 (PSMA Fab [4]): 20 nM | Off rate t1/2 (PSMA Fab [5]): 1.4 min

B5: Peptide-267 (peptide)
peptide: FTNYCVPSWMCTGF
notes: as for B2
Off rate t1/2 (PSMA Fab [5]): 1.9 min

B6: Phage-452 (peptide)
peptide: MDWCPRDWWHMCFN
notes: as for B1
CD28 scFv signal in presence of CD28 [1]: 0.243 | CD28 scFv signal [2]: 2.12

B7: Phage-1349 (peptide)
peptide: TCSAGATWAWPLCF
notes: Clonal phage of the Peptide-92 library, tested as crude supernatant; not shown: fused to the pIII filament of the bacteriophage
Anti-CD28 Fab signal in the presence of CD28 [6]: 0.09 | Anti-CD28 Fab (SEQ ID NOs: 696, 697) signal [7]: 2.31

B8: Phage-1350 (peptide)
peptide: TCAAGATYLWPTCL
notes: as for B7
Anti-CD28 Fab signal in the presence of CD28 [6]: 0.06 | Anti-CD28 Fab (SEQ ID NOs: 696, 697) signal [7]: 1.68

B9: Phage-1353 (peptide)
peptide: LCKPGVPYKWPTCL
notes: as for B7
Anti-CD28 Fab signal in the presence of CD28 [6]: 0.07

B10: Phage-3909 (peptide)
peptide: VMAVCQPEWMCSGM
notes: tested as crude clonal phage supernatant
Phage binding ELISA signal, Anti-PSMA Fab (PSMA Fab (006 PSMA Fab) [8]): 1.05 | Phage binding ELISA signal, Anti-PSMA Fab in presence of PSMA antigen (PSMA Fab (006 PSMA Fab) [9]): 0.0731

B11: Peptide-282 (peptide)
peptide: IVVKCVPSWMCEGF
notes: as for B2
IC50 (PSMA Fab [3]): 190 nM | EC50 (PSMA Fab [4]): 9.2 nM | Off rate t1/2 (PSMA Fab [5]): 1.9 min

B12: Phage-1347 (peptide)
peptide: TCSAGAHYPWPICL
notes: as for B7
Anti-CD28 Fab signal in the presence of CD28 [6]: 0.07 | Anti-CD28 Fab (SEQ ID NOs: 696, 697) signal [7]: 1.78

B13: Phage-1355 (peptide)
peptide: LCSAGAMWPWPTCL
notes: as for B7
Anti-CD28 Fab signal in the presence of CD28 [6]: 0.08 | Anti-CD28 Fab (SEQ ID NOs: 696, 697) signal [7]: 2.39

B14: Phage-1359 (peptide)
peptide: MCSAGAMYKWPLCL
notes: as for B7
Anti-CD28 Fab signal in the presence of CD28 [6]: 0.05 | Anti-CD28 Fab (SEQ ID NOs: 696, 697) signal [7]: 2.32

B15: Phage-453 (peptide)
peptide: MDWCPSDYWYVCFA
notes: as for B1
CD28 scFv signal in presence of CD28 [1]: 0.08 | CD28 scFv signal [2]: 0.707

B16: Peptide-277 (peptide)
peptide: VVIKCKPEWMCSGF
notes: as for B2
Off rate t1/2 (PSMA Fab [5]): 1.9 min

RDWCPRDLWVHCFA (cysteine pairing not given here; also: biotinylated, site not given here, CD28 peptide mask) [Peptide-53]
EC50 (Ab-15 [10]): 14.6 nM | IC50 (Ab-15 [11]): 170 nM | Kd (Ab-15 [12]): 20.3 nM | t1/2 (Ab-15 [12]): 6.2 min | Octet signal (Ab-15 [13]): 1.22 | t1/2 (Ab-15 [13]): 4.9 min

EDWCPRDLWVHCFA (cysteine pairing not given here; also: biotinylated, site not given here, CD28 peptide mask) [Peptide-57]
EC50 (Ab-15 [10]): 32.8 nM | IC50 (Ab-15 [11]): 300 nM | Kd (Ab-15 [12]): 23.2 nM | t1/2 (Ab-15 [12]): 3.1 min | Octet signal (Ab-15 [13]): 1.02 | t1/2 (Ab-15 [13]): 3 min

QDWCPRDLWVHCFA (cysteine pairing not given here; also: biotinylated, site not given here, CD28 peptide mask) [Peptide-56]
EC50 (Ab-15 [10]): 25.7 nM | IC50 (Ab-15 [11]): 330 nM | Kd (Ab-15 [12]): 24.6 nM | t1/2 (Ab-15 [12]): 4.2 min | Octet signal (Ab-15 [13]): 1.12 | t1/2 (Ab-15 [13]): 3.6 min

TDWCPRDLWVHCFA (cysteine pairing not given here; also: biotinylated, site not given here, CD28 peptide mask) [Peptide-66]
EC50 (Ab-15 [10]): 24 nM | IC50 (Ab-15 [11]): 590 nM | Kd (Ab-15 [12]): 25.5 nM | t1/2 (Ab-15 [12]): 4.7 min | Octet signal (Ab-15 [13]): 1.34 | t1/2 (Ab-15 [13]): 4.2 min

KDWCPRDLWVHCFA (cysteine pairing not given here; also: biotinylated, site not given here, CD28 peptide mask) [Peptide-62]
EC50 (Ab-15 [10]): 19.7 nM | IC50 (Ab-15 [11]): 190 nM | Kd (Ab-15 [12]): 26.1 nM | t1/2 (Ab-15 [12]): 4.5 min | Octet signal (Ab-15 [13]): 1.13 | t1/2 (Ab-15 [13]): 4 min

B17: Phage-1358 (peptide)
peptide: TCAAGAMWAWPVCL
notes: as for B7
Anti-CD28 Fab signal in the presence of CD28 [6]: 0.09 | Anti-CD28 Fab (SEQ ID NOs: 696, 697) signal [7]: 2.32

B18: Phage-1346 (peptide)
peptide: TCSAGATYEWPRCL
notes: as for B7
Anti-CD28 Fab signal in the presence of CD28 [6]: 0.06 | Anti-CD28 Fab (SEQ ID NOs: 696, 697) signal [7]: 1.84

B19: Peptide-271 (peptide)
peptide: EDILCKPKWMCEGF
notes: as for B2
IC50 (PSMA Fab [3]): 300 nM | EC50 (PSMA Fab [4]): 5.7 nM | Off rate t1/2 (PSMA Fab [5]): 3.3 min

B20: Phage-1351 (peptide)
peptide: TCAAGAHYPWPACL
notes: as for B7
Anti-CD28 Fab signal in the presence of CD28 [6]: 0.07 | Anti-CD28 Fab (SEQ ID NOs: 696, 697) signal [7]: 1.92

B21: Phage-447 (peptide)
peptide: MDWCPRDRWDVCYY
notes: as for B1
CD28 scFv signal in presence of CD28 [1]: 0.073 | CD28 scFv signal [2]: 0.074

B22: Phage-1356 (peptide)
peptide: LCSAGAMYSWPTCL
notes: as for B7
Anti-CD28 Fab signal in the presence of CD28 [6]: 0.12 | Anti-CD28 Fab (SEQ ID NOs: 696, 697) signal [7]: 2.39

B23: Peptide-283 (peptide)
peptide: TVAYCKPAWMCQGF
notes: as for B2
IC50 (PSMA Fab [3]): 820 nM | EC50 (PSMA Fab [4]): 7.8 nM | Off rate t1/2 (PSMA Fab [5]): 1.4 min

B24: Phage-442 (peptide)
peptide: IYWCPIDRWNDCYN
notes: as for B1
CD28 scFv signal in presence of CD28 [1]: 0.164 | CD28 scFv signal [2]: 0.867

B25: Phage-450 (peptide)
peptide: EDWCPTDVWPYCFS
notes: as for B1
CD28 scFv signal in presence of CD28 [1]: 0.157 | CD28 scFv signal [2]: 0.711

B26: Phage-1345 (peptide)
peptide: SCSAGAHYPWPQCF
notes: as for B7
Anti-CD28 Fab signal in the presence of CD28 [6]: 0.06 | Anti-CD28 Fab (SEQ ID NOs: 696, 697) signal [7]: 1.16

B27: Peptide-286 (peptide)
peptide: VLKYCIPDWMCAGI
notes: as for B2
IC50 (PSMA Fab [3]): 640 nM | EC50 (PSMA Fab [4]): 4 nM | Off rate t1/2 (PSMA Fab [5]): 3.3 min

B28: Phage-445 (peptide)
peptide: MDWCPRARWHDCFF
notes: as for B1
CD28 scFv signal in presence of CD28 [1]: 0.138 | CD28 scFv signal [2]: 0.497

B29: Peptide-270 (peptide)
peptide: ESRLCVPAWMCAGF
notes: as for B2
IC50 (PSMA Fab [3]): 700 nM | EC50 (PSMA Fab [4]): 17.3 nM | Off rate t1/2 (PSMA Fab [5]): 1.4 min

B30: Phage-1348 (peptide)
peptide: SCSAGAAYYWPWCL
notes: as for B7
Anti-CD28 Fab signal in the presence of CD28 [6]: 0.09 | Anti-CD28 Fab (SEQ ID NOs: 696, 697) signal [7]: 1.9

B31: Phage-3910 (peptide)
peptide: VIPLCRPSWMCAAY
notes: as for B10
Phage binding ELISA signal, Anti-PSMA Fab (PSMA Fab (006 PSMA Fab) [8]): 1.04 | Phage binding ELISA signal, Anti-PSMA Fab in presence of PSMA antigen (PSMA Fab (006 PSMA Fab) [9]): 0.116

B32: Phage-448 (peptide)
peptide: MAWCPWASFDECLA
notes: as for B1
CD28 scFv signal in presence of CD28 [1]: 0.109 | CD28 scFv signal [2]: 0.089

B33: Peptide-285 (peptide)
peptide: VERLCTPAWMCHGF
notes: as for B2
IC50 (PSMA Fab [3]): 710 nM | EC50 (PSMA Fab [4]): 25 nM | Off rate t1/2 (PSMA Fab [5]): 1.1 min

B34: Peptide-263 (peptide)
peptide: AVKACIPEWMCIGF
notes: as for B2
IC50 (PSMA Fab [3]): 620 nM | EC50 (PSMA Fab [4]): 8.4 nM | Off rate t1/2 (PSMA Fab [5]): 2.3 min

B35: Phage-446 (peptide)
peptide: MDWCPRDRWDDCFN
notes: as for B1
CD28 scFv signal in presence of CD28 [1]: 0.077 | CD28 scFv signal [2]: 0.45

B36: Phage-443 (peptide)
peptide: MDWCPMTRWNDCYF
notes: as for B1
CD28 scFv signal in presence of CD28 [1]: 0.078 | CD28 scFv signal [2]: 0.671

B37: Phage-449 (peptide)
peptide: MVDCPLISFDECLA
notes: as for B1
CD28 scFv signal in presence of CD28 [1]: 0.076 | CD28 scFv signal [2]: 0.07

Source: US20260242478A1 (published 2026)
